Reference: patent US20110123532A1 (ONCOMED PHARMACEUTICALS, published 2011)

How the values were obtained:
human VEGF [1] = molecular target: T1, human VEGF (human, UniProt P15692-4 27-191); assay: SPR (Biacore), VEGF surface
T1 construct: Immobilised on a CM5 chip for Biacore; the same name is used for the rhVEGF of the HUVEC assay; also called hVEGF; rhVEGF

human VEGF [2] = molecular target: T1, human VEGF; assay: SPR (Biacore), VEGF surface; reference 219R0302 IgG

T1 sequence (P15692 other isoform, or with tags, fused parts or gaps limits assumed): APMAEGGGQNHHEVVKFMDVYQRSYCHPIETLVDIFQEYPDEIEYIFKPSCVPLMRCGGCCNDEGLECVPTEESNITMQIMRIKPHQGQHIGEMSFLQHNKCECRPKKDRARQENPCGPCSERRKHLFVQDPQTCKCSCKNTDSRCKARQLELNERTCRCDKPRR

B1: 219R0302-21M18 single gene bispecific antibody (SGBSP) (bispecific antibody, human IgG2, kappa)
chain 1: not shown
chain 2: DIVMTQSPDSLAVSLGERATISCRASESVDNYGISFMKWFQQKPGQPPKLLIYAASNQGSGVPDRFSGSGSGTDFTLTISSLQAEDVAVYYCQQSKEVPWTFGGGTKVEIKRTVAAPSVFIFPPSDEQLKSGTASVVCLLNNFYPREAKVQWKVDNALQSGNSQESVTEQDSKDSTYSLSSTLTLSKADYEKHKVYACEVTHQGLSSPVTKSFNRGECGGGGSGGGGSGGGGSGGGGSGGGGSGGGGSQVQLVQSGAEVKKPGASVKISCKASGYSFTAYYIHWVKQAPGQGLEWIGYISSYNGATNYNQKFKGRVTFTTDTSTSTAYMELRSLRSDDTAVYYCARDYDYDVGMDYWGQGTLVTVSSASTKGPSVFPLAPCSRSTSESTAALGCLVKDYFPEPVTVSWNSGALTSGVHTFPAVLQSSGLYSLSSVVTVPSSNFGTQTYTCNVDHKPSNTKVDKTVERKCCVECPPCPAPPVAGPSVFLFPPKPKDTLMISRTPEVTCVVVDVSHEDPEVQFNWYVDGVEVHNAKTKPREEQFNSTFRVVSVLTVVHQDWLNGKEYKCKVSNKGLPAPIEKTISKTKGQPREPQVYTLPPSREEMTKNQVSLTCLVEGFYPSDIAVEWESNGQPENNYKTTPPMLDSDGSFFLYSELTVDKSRWQQGNVFSCSVMHEALHNHYTQKSLSLSPGK
notes: Heterodimer of two single-gene chains, anti-VEGF arm (13A) and anti-DLL4 arm (13B), IgG2; also called 219R0302_21M18 SGBSP; 219R0302-21M18 SGBSP
- Kd (human VEGF [1]): 7.6 nM
- fold weaker binding affinity than 219R0302 (human VEGF [2]): ~4 fold
